Assay results as given in patent publication US20190284299A1.

Columns and labels:
[1] = target: CD3 on Jurkat cells (Homo sapiens (Human)) (UniProt P07766); assay: flow cytometry on Jurkat cells, as in Example 8
[2] = target: CD3 on Jurkat cells (Homo sapiens (Human)) (UniProt P07766); assay: flow cytometry on Jurkat cells, 5 nM, anti-human IgG-FITC
[3] = target: HER2 on SK-BR-3 cells (UniProt P04626); assay: flow cytometry on SK-BR-3 cells, 0.5 nM, anti-human IgG-FITC
[4] = target: CD3 on Jurkat cells (Homo sapiens (Human)) (UniProt P07766); assay: flow cytometry on Jurkat cells, as in Example 8; remark: listed apart in the source
[5] = target: CD20 on Raji cells (UniProt P11836); assay: flow cytometry on Raji cells, as in Example 8
[6] = target: CD3 on Jurkat cells (Homo sapiens (Human)) (UniProt P07766); assay: flow cytometry on Jurkat cells, as in Example 8; remark: listed apart in the source

Chain of CD3 on Jurkat cells (Homo sapiens (Human)) (P07766 23-207 limits assumed, form in doubt, chain 1 of 3): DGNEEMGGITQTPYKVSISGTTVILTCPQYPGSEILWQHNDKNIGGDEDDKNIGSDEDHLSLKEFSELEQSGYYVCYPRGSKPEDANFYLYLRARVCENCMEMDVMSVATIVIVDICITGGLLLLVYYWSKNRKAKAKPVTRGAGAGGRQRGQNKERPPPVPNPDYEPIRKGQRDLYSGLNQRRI
Chain of CD3 on Jurkat cells (Homo sapiens (Human)) (delta, as listed by the source limits assumed, form in doubt, chain 2 of 3): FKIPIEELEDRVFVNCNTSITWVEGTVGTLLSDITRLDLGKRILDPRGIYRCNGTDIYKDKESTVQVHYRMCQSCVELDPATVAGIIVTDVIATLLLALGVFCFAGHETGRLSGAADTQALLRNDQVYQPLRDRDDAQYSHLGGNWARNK
Chain of CD3 on Jurkat cells (Homo sapiens (Human)) (gamma, as listed by the source limits assumed, form in doubt, chain 3 of 3): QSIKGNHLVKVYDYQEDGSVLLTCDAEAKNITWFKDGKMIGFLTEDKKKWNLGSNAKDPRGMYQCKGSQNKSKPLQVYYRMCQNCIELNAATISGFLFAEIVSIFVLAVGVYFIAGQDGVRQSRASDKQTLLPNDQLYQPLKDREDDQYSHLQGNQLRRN
Chain of CD20 on Raji cells (P11836 whole entry): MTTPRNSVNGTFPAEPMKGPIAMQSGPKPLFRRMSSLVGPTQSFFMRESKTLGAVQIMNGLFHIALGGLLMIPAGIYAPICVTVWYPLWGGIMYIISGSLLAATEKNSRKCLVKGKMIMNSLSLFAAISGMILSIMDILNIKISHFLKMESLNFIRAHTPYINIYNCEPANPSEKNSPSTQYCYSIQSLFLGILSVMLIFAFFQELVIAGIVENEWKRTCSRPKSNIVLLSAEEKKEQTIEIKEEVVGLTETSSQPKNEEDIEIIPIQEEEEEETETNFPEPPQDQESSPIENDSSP

- MFI [1]: 2.7
- MFI [2]: 3.16
- Mean Fluorescence Intensity (MFI) [3]: 2.88
- MFI [4]: 3.34
- MFI [5]: 2.77
- MFI [6]: 2.75
Substance: isotype control (human immunoglobulin, Jiangxi Boya Bio-pharmaceutical, Approval No.S19993012) (antibody)
